Measured values: US20140087995A1 (published 2014)
Numbered stars: 1 amine (or outer) side, 2 acyl side, 3 side chain; on linkers, the order of the positions; unused ones are H or OH. Bridge positions count the residues as written; N and C are the ends. Side chains are listed from the residue outwards. Ends that are not written are not given here. * marks the point of attachment. C20 diacid = O=C(O)CCCCCCCCCCCCCCCCCCC(=O)*; γGlu = O=C(O)[C@H](CCC(=O)[*:2])N[*:1]

T1: human amylin receptor (amylin 3(a) receptor: human calcitonin receptor plus RAMP-3) (human, UniProt P30988 25-474; O60896 24-148)
T1 sequence (looked up) 1: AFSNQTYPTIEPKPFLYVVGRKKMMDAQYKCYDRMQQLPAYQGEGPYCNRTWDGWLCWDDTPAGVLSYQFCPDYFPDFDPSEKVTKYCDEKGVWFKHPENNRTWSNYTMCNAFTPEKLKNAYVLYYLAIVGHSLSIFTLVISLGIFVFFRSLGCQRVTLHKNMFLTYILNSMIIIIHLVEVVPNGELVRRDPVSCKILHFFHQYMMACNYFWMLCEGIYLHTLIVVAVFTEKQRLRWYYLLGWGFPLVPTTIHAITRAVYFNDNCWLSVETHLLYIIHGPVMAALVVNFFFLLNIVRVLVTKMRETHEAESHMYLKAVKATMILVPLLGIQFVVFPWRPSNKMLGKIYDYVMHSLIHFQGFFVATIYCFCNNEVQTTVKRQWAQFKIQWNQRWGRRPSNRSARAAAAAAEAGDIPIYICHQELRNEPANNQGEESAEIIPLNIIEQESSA
T1 sequence (looked up) 2: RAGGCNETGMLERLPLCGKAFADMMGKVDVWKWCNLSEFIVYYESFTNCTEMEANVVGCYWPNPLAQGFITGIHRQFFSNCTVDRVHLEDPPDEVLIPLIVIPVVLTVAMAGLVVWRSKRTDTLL

T2: human calcitonin receptor (human, UniProt P30988 25-474)
T2 sequence (looked up): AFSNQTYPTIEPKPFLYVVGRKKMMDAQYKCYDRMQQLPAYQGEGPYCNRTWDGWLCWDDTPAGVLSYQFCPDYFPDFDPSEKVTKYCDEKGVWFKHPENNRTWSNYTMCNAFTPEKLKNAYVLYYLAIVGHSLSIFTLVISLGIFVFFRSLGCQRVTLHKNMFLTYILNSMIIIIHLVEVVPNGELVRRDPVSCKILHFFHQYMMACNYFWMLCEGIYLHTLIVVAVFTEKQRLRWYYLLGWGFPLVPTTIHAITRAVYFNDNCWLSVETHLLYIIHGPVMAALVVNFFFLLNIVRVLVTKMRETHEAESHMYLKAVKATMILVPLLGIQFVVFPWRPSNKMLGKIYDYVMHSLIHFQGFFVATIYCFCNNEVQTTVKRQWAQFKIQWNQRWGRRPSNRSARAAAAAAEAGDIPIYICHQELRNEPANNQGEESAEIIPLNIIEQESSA


Columns and labels:
[1] = target: T1, human amylin receptor (amylin 3(a) …); test: cell-based or functional assay
[2] = target: T2, human calcitonin receptor; test: cell-based or functional assay
[3] = target: T1, human amylin receptor (amylin 3(a) …); test: SPA competition binding, displacement of 125I-rat amylin, membranes of BHK amylin 3(a)/CRE-luc cells
Method in brief: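 Membranes from BHK Amylin 3(a)/CRE-luc cells (35 ng/μL final) were mixed with SPA beads and test compounds in 50 mM Hepes pH 7.4 with 1 mM CaCl2, 5 mM MgCl₂, 0.1% OA and 0.02% Tween20. Incubation ran 120 min at 25° C with shaking; IC₅₀ came from one-site competition fitting.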

Ratio hCT/hAmylin funct. [1]	hAmylin-R funct. EC50 (pM) [1]	hCTR funct. EC50 (pM) [2]	IC50 [3]	Binder
5.2	161 pM	841 pM	140 pM	K([γGlu-C20 diacid])CNTATCATQRLAEFLRHSSPNFGAIPSSTNVGPETY-NH2 (disulfide 2-7; N-terminus assumed; SMILES CC[C@H](C)[C@H](NC(=O)[C@H](C)NC(=O)CNC(=O)[C@H](Cc1ccccc1)NC(=O)[C@H](CC(N)=O)NC(=O)[C@@H]1CCCN1C(=O)[C@H](CO)NC(=O)[C@H](CO)NC(=O)[C@H](Cc1c[nH]cn1)NC(=O)[C@H](CCCNC(=N)N)NC(=O)[C@H](CC(C)C)NC(=O)[C@H](Cc1ccccc1)NC(=O)[C@H](CCC(=O)O)NC(=O)[C@H](C)NC(=O)[C@H](CC(C)C)NC(=O)[C@H](CCCNC(=N)N)NC(=O)[C@H](CCC(N)=O)NC(=O)[C@@H](NC(=O)[C@H](C)NC(=O)[C@@H]1CSSC[C@H](NC(=O)[C@@H](N)CCCCNC(=O)CC[C@H](NC(=O)CCCCCCCCCCCCCCCCCCC(=O)O)C(=O)O)C(=O)N[C@@H](CC(N)=O)C(=O)N[C@@H]([C@@H](C)O)C(=O)N[C@@H](C)C(=O)N[C@@H]([C@@H](C)O)C(=O)N1)[C@@H](C)O)C(=O)N1CCC[C@H]1C(=O)N[C@@H](CO)C(=O)N[C@@H](CO)C(=O)N[C@H](C(=O)N[C@@H](CC(N)=O)C(=O)N[C@H](C(=O)NCC(=O)N1CCC[C@H]1C(=O)N[C@@H](CCC(=O)O)C(=O)N[C@H](C(=O)N[C@@H](Cc1ccc(O)cc1)C(N)=O)[C@@H](C)O)C(C)C)[C@@H](C)O)
	445 pM	7050 pM	525 pM	K([γGlu-γGlu-C20 diacid])CNTATCATQRLAEFLRHSSPNFGAIPSSTNVGHETY-NH2 (disulfide 2-7; N-terminus assumed; SMILES CC[C@H](C)[C@H](NC(=O)[C@H](C)NC(=O)CNC(=O)[C@H](Cc1ccccc1)NC(=O)[C@H](CC(N)=O)NC(=O)[C@@H]1CCCN1C(=O)[C@H](CO)NC(=O)[C@H](CO)NC(=O)[C@H](Cc1c[nH]cn1)NC(=O)[C@H](CCCNC(=N)N)NC(=O)[C@H](CC(C)C)NC(=O)[C@H](Cc1ccccc1)NC(=O)[C@H](CCC(=O)O)NC(=O)[C@H](C)NC(=O)[C@H](CC(C)C)NC(=O)[C@H](CCCNC(=N)N)NC(=O)[C@H](CCC(N)=O)NC(=O)[C@@H](NC(=O)[C@H](C)NC(=O)[C@@H]1CSSC[C@H](NC(=O)[C@@H](N)CCCCNC(=O)CC[C@H](NC(=O)CC[C@H](NC(=O)CCCCCCCCCCCCCCCCCCC(=O)O)C(=O)O)C(=O)O)C(=O)N[C@@H](CC(N)=O)C(=O)N[C@@H]([C@@H](C)O)C(=O)N[C@@H](C)C(=O)N[C@@H]([C@@H](C)O)C(=O)N1)[C@@H](C)O)C(=O)N1CCC[C@H]1C(=O)N[C@@H](CO)C(=O)N[C@@H](CO)C(=O)N[C@H](C(=O)N[C@@H](CC(N)=O)C(=O)N[C@H](C(=O)NCC(=O)N[C@@H](Cc1c[nH]cn1)C(=O)N[C@@H](CCC(=O)O)C(=O)N[C@H](C(=O)N[C@@H](Cc1ccc(O)cc1)C(N)=O)[C@@H](C)O)C(C)C)[C@@H](C)O)
	101 pM	1450 pM	179 pM	K([γGlu-C20 diacid])CNTATCATQRLAEFLRHSSPNFGAIPSSTNVGPHTY-NH2 (disulfide 2-7)
	703 pM	7430 pM	957 pM	K([γGlu-γGlu-C20 diacid])CNTATCATQRLAEFLRHSSPNFGAIPSSTNVGRETY-NH2 (disulfide 2-7; N-terminus assumed; SMILES CC[C@H](C)[C@H](NC(=O)[C@H](C)NC(=O)CNC(=O)[C@H](Cc1ccccc1)NC(=O)[C@H](CC(N)=O)NC(=O)[C@@H]1CCCN1C(=O)[C@H](CO)NC(=O)[C@H](CO)NC(=O)[C@H](Cc1c[nH]cn1)NC(=O)[C@H](CCCNC(=N)N)NC(=O)[C@H](CC(C)C)NC(=O)[C@H](Cc1ccccc1)NC(=O)[C@H](CCC(=O)O)NC(=O)[C@H](C)NC(=O)[C@H](CC(C)C)NC(=O)[C@H](CCCNC(=N)N)NC(=O)[C@H](CCC(N)=O)NC(=O)[C@@H](NC(=O)[C@H](C)NC(=O)[C@@H]1CSSC[C@H](NC(=O)[C@@H](N)CCCCNC(=O)CC[C@H](NC(=O)CC[C@H](NC(=O)CCCCCCCCCCCCCCCCCCC(=O)O)C(=O)O)C(=O)O)C(=O)N[C@@H](CC(N)=O)C(=O)N[C@@H]([C@@H](C)O)C(=O)N[C@@H](C)C(=O)N[C@@H]([C@@H](C)O)C(=O)N1)[C@@H](C)O)C(=O)N1CCC[C@H]1C(=O)N[C@@H](CO)C(=O)N[C@@H](CO)C(=O)N[C@H](C(=O)N[C@@H](CC(N)=O)C(=O)N[C@H](C(=O)NCC(=O)N[C@@H](CCCNC(=N)N)C(=O)N[C@@H](CCC(=O)O)C(=O)N[C@H](C(=O)N[C@@H](Cc1ccc(O)cc1)C(N)=O)[C@@H](C)O)C(C)C)[C@@H](C)O)
0.8	132 pM	102 pM	533 pM	K([γGlu-γGlu-C20 diacid])CNTATCATQRLAEFLRHSSPNFGAIPSSTNVGPETP-NH2 (disulfide 2-7; N-terminus assumed; SMILES CC[C@H](C)[C@H](NC(=O)[C@H](C)NC(=O)CNC(=O)[C@H](Cc1ccccc1)NC(=O)[C@H](CC(N)=O)NC(=O)[C@@H]1CCCN1C(=O)[C@H](CO)NC(=O)[C@H](CO)NC(=O)[C@H](Cc1c[nH]cn1)NC(=O)[C@H](CCCNC(=N)N)NC(=O)[C@H](CC(C)C)NC(=O)[C@H](Cc1ccccc1)NC(=O)[C@H](CCC(=O)O)NC(=O)[C@H](C)NC(=O)[C@H](CC(C)C)NC(=O)[C@H](CCCNC(=N)N)NC(=O)[C@H](CCC(N)=O)NC(=O)[C@@H](NC(=O)[C@H](C)NC(=O)[C@@H]1CSSC[C@H](NC(=O)[C@@H](N)CCCCNC(=O)CC[C@H](NC(=O)CC[C@H](NC(=O)CCCCCCCCCCCCCCCCCCC(=O)O)C(=O)O)C(=O)O)C(=O)N[C@@H](CC(N)=O)C(=O)N[C@@H]([C@@H](C)O)C(=O)N[C@@H](C)C(=O)N[C@@H]([C@@H](C)O)C(=O)N1)[C@@H](C)O)C(=O)N1CCC[C@H]1C(=O)N[C@@H](CO)C(=O)N[C@@H](CO)C(=O)N[C@H](C(=O)N[C@@H](CC(N)=O)C(=O)N[C@H](C(=O)NCC(=O)N1CCC[C@H]1C(=O)N[C@@H](CCC(=O)O)C(=O)N[C@H](C(=O)N1CCC[C@H]1C(N)=O)[C@@H](C)O)C(C)C)[C@@H](C)O)
20.1	27 pM	542 pM	396 pM	K([γGlu-C20 diacid])CNTATCATQRLAHFLRHSSPNFGAIPSSTNVGSHTY-NH2 (disulfide 2-7; N-terminus assumed; SMILES CC[C@H](C)[C@H](NC(=O)[C@H](C)NC(=O)CNC(=O)[C@H](Cc1ccccc1)NC(=O)[C@H](CC(N)=O)NC(=O)[C@@H]1CCCN1C(=O)[C@H](CO)NC(=O)[C@H](CO)NC(=O)[C@H](Cc1c[nH]cn1)NC(=O)[C@H](CCCNC(=N)N)NC(=O)[C@H](CC(C)C)NC(=O)[C@H](Cc1ccccc1)NC(=O)[C@H](Cc1c[nH]cn1)NC(=O)[C@H](C)NC(=O)[C@H](CC(C)C)NC(=O)[C@H](CCCNC(=N)N)NC(=O)[C@H](CCC(N)=O)NC(=O)[C@@H](NC(=O)[C@H](C)NC(=O)[C@@H]1CSSC[C@H](NC(=O)[C@@H](N)CCCCNC(=O)CC[C@H](NC(=O)CCCCCCCCCCCCCCCCCCC(=O)O)C(=O)O)C(=O)N[C@@H](CC(N)=O)C(=O)N[C@@H]([C@@H](C)O)C(=O)N[C@@H](C)C(=O)N[C@@H]([C@@H](C)O)C(=O)N1)[C@@H](C)O)C(=O)N1CCC[C@H]1C(=O)N[C@@H](CO)C(=O)N[C@@H](CO)C(=O)N[C@H](C(=O)N[C@@H](CC(N)=O)C(=O)N[C@H](C(=O)NCC(=O)N[C@@H](CO)C(=O)N[C@@H](Cc1c[nH]cn1)C(=O)N[C@H](C(=O)N[C@@H](Cc1ccc(O)cc1)C(N)=O)[C@@H](C)O)C(C)C)[C@@H](C)O, also called compound 66)
5.3	159 pM	843 pM	172 pM	K([γGlu-γGlu-C20 diacid])CNTATCATQRLADFLRHSSPNFGAIPSSTNVGPETY-NH2 (disulfide 2-7)
